Measurements as given in US20190225680A1 (NASCIENT, published 2019).
Substitutions are numbered along the chain they refer to.

B1: 165_13_D1 scFv (scFv, V domains shown)
VH: QVQLVESGGGLVQPGRSLRLSCAASGFTFDDYAMHWVRQAPGKGLEWVSGISGSGGSTYYADSVKGRFTISRDNAKNSLYLQMNSLRAEDTALYYCAKGTRGEGDTFDIWGQGTMVTVSS
VL: DIQMTQSPASLPTPVGDRVTITCRASQYIQGFLNWYQQKPGKAPKLLIYDASNLETGVPSRFSGSGSGTDFTLTISSLQPEDFATYYCQQSYSTPQTFGQGTKVDIK
notes: VH CDR3 GTRGEGDTFDI; not shown: scFv linker, domain order, and the tags of the pSANG10 vector (FLAG and others)
B2: 165_13_E1 scFv (scFv, V domains shown, not shown: small tags and cut ends)
VH: B1 VH with G99D, T100I, R101S, G102A, E103V, G104M, T106V, F107P, D108Q, I109T
VL: B1 VL
notes: VH CDR3 DISAVMDVPQT; 48 is used
B3: 165_13_A4 scFv (scFv, V domains shown)
VH: B1 VH with G99D, T100K, R101Y, G102P, E103V, G104L
VL: B1 VL
notes: VH CDR3 DKYPVLDTFDI; not shown: scFv linker, domain order, and the tags of the pSANG10 vector (FLAG and others)
B4: 165_13_B3 scFv (scFv, V domains shown, not shown: small tags and cut ends)
VH: B1 VH with G99A, T100L, R101A, G102R, E103G, G104H
VL: B1 VL
notes: VH CDR3 ALARGHDTFDI
B5: 180_11_F5 scFv (scFv, V domains shown, not shown: small tags and cut ends)
VH: B1 VH with G99V, T100M, G102T, E103G, G104L
VL: B1 VL
notes: VH CDR3 VMRTGLDTFDI
B6: 165_13_D4 scFv (scFv, V domains shown)
VH: B1 VH with R101V
VL: B1 VL
notes: VH CDR3 GTVGEGDTFDI; not shown: scFv linker, domain order, and the tags of the pSANG10 vector (FLAG and others)
B7: 165_13_B6 scFv (scFv, V domains shown)
VH: B1 VH with T100Q, R101K
VL: B1 VL
notes: VH CDR3 GQKGEGDTFDI; not shown: scFv linker, domain order, and the tags of the pSANG10 vector (FLAG and others)
B8: 165_13_C3 scFv (scFv, V domains shown)
VH: B1 VH with G99S, T100Y, R101Q, G102S, E103D, G104E, T106A
VL: B1 VL
notes: VH CDR3 SYQSDEDAFDI; Antibody C3 of the B12 family; not shown: scFv linker, domain order, and the tags of the pSANG10 vector (FLAG and others)
B9: 165_13_B1 scFv (scFv, V domains shown)
VH: B1 VH with G99V, T100M, R101S, G102S, E103M, G104E, T106A
VL: B1 VL
notes: VH CDR3 VMSSMEDAFDI; not shown: scFv linker, domain order, and the tags of the pSANG10 vector (FLAG and others)
B10: 2A5 scFv (scFv, V domains shown, not shown: small tags and cut ends)
VH: EVRLVQSGAEVKKPGASVKVSCKVSGYTLTELSMHWVRQAPGKGLEWMGGFDPEDGETIYAQKFQGRVTMTEDTSTDTAYMELSSLRSEDTAVYYCATAQKETYALTYWGQGTLVTVSS
VL: B1 VL with P14S, K45R, D50A, N53T, E55Q, T56D, S67Y, Q96W, D105E

target: T1, mouse TNC rCd4-His-FBG (rat; mouse, UniProt P05540 207-386); experiment: anti-FLAG capture DELFIA ELISA, scFv supernatant, biotinylated mouse rCd4-His-FBG
T1 construct: domain: domains 3 and 4; also called Mu TNC; mouse TNC FBG
T1 sequence: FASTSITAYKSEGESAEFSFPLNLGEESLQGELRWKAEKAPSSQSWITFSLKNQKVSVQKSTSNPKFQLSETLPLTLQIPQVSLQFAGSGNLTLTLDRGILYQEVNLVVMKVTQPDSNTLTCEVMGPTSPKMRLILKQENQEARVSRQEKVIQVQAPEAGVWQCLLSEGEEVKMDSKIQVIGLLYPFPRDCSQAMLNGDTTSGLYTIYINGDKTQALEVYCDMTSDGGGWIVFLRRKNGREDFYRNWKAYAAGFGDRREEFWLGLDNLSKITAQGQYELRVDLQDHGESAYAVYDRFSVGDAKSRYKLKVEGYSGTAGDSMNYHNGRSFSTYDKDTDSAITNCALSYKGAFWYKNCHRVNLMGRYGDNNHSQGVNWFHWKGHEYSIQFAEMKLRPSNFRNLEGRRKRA
Method: E. coli clones harbouring scFv pSANG10 expression plasmids were induced in 96-well plates with auto-induction media as described previously (Schofield et al, 2007). E. coli supernatants were harvested for ELISA assays. ELISA used the DELFIA (dissociation enhanced lanthanide fluorescent immunoassay) system with Europium-labelled anti-FLAG antibody (Sigma, Aldrich, UK). Black immunosorb plates (Nunc) were coated overnight with anti-FLAG M2 antibody (Sigma, F3165, 5 μg/ml in PBS, 50 μl per well), in wells blocked by the addition of 2% milk powder, PBS (PBS-M, 300 μl per well). Plates were washed three times with PBS-T (PBS, 0.1% Tween-20) and three times with PBS followed by the addition of a 1:2 dilution of 96-well auto-induction culture supernatants containing expressed scFv in PBS-M (50 μl per well). The plates were incubated for 1 h, washed as above and biotinylated mouse or human rCd4-His-FBG (5 μg/ml in PBS-M, 50 μl) added to each well. Plates were incubated for a further 1 h, washed and Strepravidin-Eu added (Perkin Elmer, 1 μg/ml, PBS-M, 50 μl), incubated for 30 min, washed and DELFIA enhancement solution added (50 μl) and plates read on a Perkin Elmer Fusion plate reader (excitation=320 nm, emission 620 nm). The format of the assay is shown in.

| Binder | fold improvement for mouse FBG binding (against the parent B12) [fold] |
| --- | --- |
| B1 | ≥ 4 |
| B2 | ≥ 4 |
| B3 | ≥ 4 |
| B4 | ≥ 4 |
| B5 | ≥ 4 |
| B6 | ≥ 4 |
| B7 | ≥ 4 |
| B8 | ≥ 4 |
| B9 | ≥ 4 |

target: T2, human TNC rCd4-His-FBG (rat; human); experiment: HTRF competition, scFv supernatant, competitor d2-labelled B12 IgG, biotinylated human rCd4-His-FBG
T2 sequence: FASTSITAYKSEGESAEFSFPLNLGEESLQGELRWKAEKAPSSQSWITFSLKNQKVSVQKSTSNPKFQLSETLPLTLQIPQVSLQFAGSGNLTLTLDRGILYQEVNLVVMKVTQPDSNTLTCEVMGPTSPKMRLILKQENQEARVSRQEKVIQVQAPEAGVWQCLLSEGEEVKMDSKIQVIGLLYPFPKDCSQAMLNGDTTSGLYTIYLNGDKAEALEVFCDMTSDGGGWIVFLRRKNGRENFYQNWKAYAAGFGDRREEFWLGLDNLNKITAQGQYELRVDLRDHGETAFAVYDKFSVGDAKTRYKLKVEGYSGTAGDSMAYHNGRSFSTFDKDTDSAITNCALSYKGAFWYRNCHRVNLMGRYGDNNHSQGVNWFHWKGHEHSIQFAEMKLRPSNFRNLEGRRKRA

| Binder | % inhibition by parent scFv [%] |
| --- | --- |
| B10 | 19 |

target: T3, human TNC rCd4-His-FBG (rat; human, UniProt P05540 207-386); experiment: as above
T3 construct: domain: domains 3 and 4; Biotinylated in the ELISA and HTRF assays; also called Hu TNC; human TNC FBG
T3 sequence: T2 sequence
Method: An HTRF-based competition assay was developed to screen for antibody variants with improved binding to human TNC FBG.
All samples and reagents were prepared in assay buffer (50 mM NaPO₄, 0.1% BSA, 0.4 M KF, pH 7.0) at 4× the stated concentration. 5 μl of each reagent was subsequently added to low volume 384-well assay plates (Greiner, 784075) to give a final reaction volume of 20 μl. IgG antibodies were labelled using the d2 labelling kit (CisBio, 62D2DPEA) as directed by the manufacturer. Streptavidin europium cryptate (CisBio, 610SAKLA, Lot#25C) was used at a final concentration of 1.8 ng active moiety (SA) per 20 μl reaction as recommended by the manufacturer. Biotinylated rCd4-His-FBG was prepared using EZ-link Sulfo-NHS-LC-Biotin reagent (Thermo Scientific, 21327) the extent of biotinylation was quantified using biotinylation fluorescence quantitation kit (Thermo Scientific, 46610). Where appropriate, supernatants containing scFv (prepared as described above for ELISA assays) were added to the 384-well assay plate at a final dilution of 1/20 (i.e. 1/5 dilution in assay buffer followed by addition of 5 μl diluted sample to the 20 μl FRET assay). […] Unless otherwise stated, biotinylated rCd4-His-FBG (biotin:protein ratio=1.8:1) was present at either 2.2 nM (in assays using the 2A5 IgG antibody) or 1 nM (in experiments using B12 IgG). Samples were incubated for approximately 1 h at room temperature and the FRET signal was determined using a BMG Pherastar instrument: excitation=320 nm; emission=620 nm and 665 nm; integration start time=60 μs; integration time=500 μs; 100 flashes per well. For competition assays containing culture supernatant, biotinylated rCd4-His-FBG antigen was pre-incubated with streptavidin europium cryptate for 45 min prior to addition of reagents to the assay plate. All FRET signals are presented as ΔR, where R=(E665/E620×104) and ΔR=(Rsample−Rbackground fluorescence).
Culture supernatants containing unlabelled scFv clones from affinity selected mutant libraries were tested for inhibition of the interaction between FBG and the fluorophore-labelled parental IgG antibody.

| Binder | % inhibition of HTRF signal [%] |
| --- | --- |
| B1 | 91 |
| B2 | 91 |
| B3 | 91 |
| B4 | 91 |
| B5 | 91 |
| B6 | 91 |
| B7 | 91 |
| B8 | 91 |
| B9 | 91 |
